Publication PMC9910500

Biological target: endogenous p32 (ASF/SF2 splicing factor-associated protein) (human (endogenous in HEK293T)) (UniProt Q07021)
Test: co-IP

Sequence of UniProt Q07021 (Q07021 74-282): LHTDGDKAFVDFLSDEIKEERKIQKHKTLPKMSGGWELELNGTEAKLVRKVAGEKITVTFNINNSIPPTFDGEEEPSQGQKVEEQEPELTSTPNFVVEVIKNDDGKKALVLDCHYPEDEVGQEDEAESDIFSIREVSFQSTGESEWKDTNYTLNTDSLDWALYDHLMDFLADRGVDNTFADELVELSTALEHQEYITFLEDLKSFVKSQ

Substance: RNA polymerase II (RNAPII) (complex)
- increase of RNAPII co-precipitated with p32 in the presence of Tat: 50%
